Among the data in patent US20240116985A1, “STAPLED PEPTIDES AND METHODS THEREOF” (priority 2020, published 2024) are EC50 and IC50 values, retold here.

Sequences and labels used below:
B1: I-709 (peptide)
peptide: Ac-[αAllylPro]D[Cha][B5(3)]D[TfeGA]AAFN[S8][3Thi][Bta]H-NH2
modifications: staple 1-4, 4-11
B2: I-705 (peptide)
peptide: Ac-[αAllylPro]D[tBuAla][B5(3)]D[TfeGA]AAFN[S8][3Thi][Bta]H-NH2
modifications: staple 1-4, 4-11
B3: I-2066 (peptide)
peptide: Ac-[αAllylPro]N[Cha][B5(5)]DQHAFN[PyrS2″]F[Bta][hSer]-NH2
modifications: staple 1-4, 4-11
B4: I-2065 (peptide)
peptide: Ac-[αAllylPro]N[Cha][B5(4)]DQ[Lys(iPr)]AFN[PyrS2″]F[Bta]A-NH2
modifications: staple 1-4, 4-11
B5: I-2067 (peptide)
peptide: Ac-[αAllylPro]N[Cha][B5(4)]DQQAFN[PyrS2″]F[Bta][hSer]-NH2
modifications: staple 1-4, 4-11
B6: I-2062 (peptide)
peptide: Ac-[αAllylPro]D[tBuAla][B5(4)]D[Phe(3-COOH)]AAFL[PyrS2″][Phe(2-Cl)][Bta][Met(O2)]-NH2
modifications: staple 1-4, 4-11
B7: I-2058 (peptide)
peptide: Ac-[αAllylPro]D[tBuAla][B5(4)]D[Phe(3-COOH)]NAFL[PyrS2″][Phe(2-CF3)][Bta]A-NH2
modifications: staple 1-4, 4-11
B8: I-2063 (peptide)
peptide: Ac-[αAllylPro]D[tBuAla][B5(4)]D[Phe(3-COOH)]AAFL[PyrS2″][Phe(2-CF3)][Bta][Met(O2)]-NH2
modifications: staple 1-4, 4-11
B9: I-2059 (peptide)
peptide: Ac-[αAllylPro]D[tBuAla][B5(4)]D[Phe(3-COOH)]SAFL[PyrS2″][Phe(2-CF3)][Bta]A-NH2
modifications: staple 1-4, 4-11
B10: I-2052 (peptide)
peptide: Ac-[αAllylPro]D[tBuAla][B5(3)]D[Phe(3-COOH)]QAFF[PyrS2″][3Thi][Bta]A-NH2
modifications: staple 1-4, 4-11
B11: I-2056 (peptide)
peptide: Ac-[αAllylPro]D[tBuAla][B5(4)]D[Phe(3-COOH)]QAFL[PyrS2″][3Thi][Bta]L-NH2
modifications: staple 1-4, 4-11
B12: I-2054 (peptide)
peptide: Ac-[αAllylPro]D[tBuAla][B5(4)]D[Phe(3-COOH)]QAFV[PyrS2″][3Thi][Bta]A-NH2
modifications: staple 1-4, 4-11
B13: I-2060 (peptide)
peptide: Ac-[αAllylPro]D[tBuAla][B5(4)]D[Phe(3-COOH)]TAFL[PyrS2″][Phe(2-CF3)][Bta]A-NH2
modifications: staple 1-4, 4-11
B14: I-2057 (peptide)
peptide: Ac-[αAllylPro]D[tBuAla][B5(4)]D[Phe(3-COOH)]QAFL[PyrS2″][2F3MeF][Bta]A-NH2
modifications: staple 1-4, 4-11
B15: I-2051 (peptide)
peptide: Ac-[αAllylPro]D[tBuAla][B5(3)]D[Phe(3-COOH)]TAFL[PyrS2″][3Thi][Bta]A-NH2
modifications: staple 1-4, 4-11

Starred links: 1 amine or outer side, 2 acyl side, 3 side chain; linkers in the order of their positions; H or OH if unused. Positions of bridges follow the written chain, without caps; N, C: chain ends. Non-standard residues stand in square brackets, D forms with d. Primed or numbered codes have the meaning given here. PyrS2″ = (S)-3-amino-1-((pent-4-en-1-yloxy)carbonyl)pyrrolidine-3-carboxylic acid (stapling residue), C=CCCCOC(=O)N1CC[C@@](N[*:1])(C(=O)[*:2])C1; B5(4) = 2,2-bis(4-pentenyl)glycine = 2-amino-2-(pent-4-en-1-yl)hept-6-enoic acid (stitching residue), C=CCCCC(CCCC=C)(N[*:1])C(=O)[*:2]; B5(5) = 2,2-bis(4-pentenyl)glycine, 2-amino-2-(pent-4-en-1-yl)hept-6-enoic acid (stitching residue), C=CCCCC(CCCC=C)(N[*:1])C(=O)[*:2]; TfeGA = (S)-2-amino-3-((carboxymethyl)(2,2,2-trifluoroethyl)amino)propanoic acid, O=C([C@H](CN(CC(=O)[*:3])CC(F)(F)F)N[*:1])[*:2]; B5(3) = 2,2-bis(4-pentenyl)glycine (stitching residue), C=CCCCC(CCCC=C)(N[*:1])C(=O)[*:2]; Phe(3-COOH) = N[C@@H](Cc1cccc(C(=O)O)c1)C(=O)O; 2F3MeF = Cc1cccc(C[C@H](N[*:1])C(=O)[*:2])c1F; Phe(2-CF3) = N[C@@H](Cc1ccccc1C(F)(F)F)C(=O)O; Phe(2-Cl) = N[C@@H](Cc1ccccc1Cl)C(=O)O; Met(O2) = CS(=O)(=O)CC[C@H](N)C(=O)O; Bta = N[C@@H](Cc1csc2ccccc12)C(=O)O; Lys(iPr) = CC(C)NCCCC[C@H](N)C(=O)O; αAllylPro = C=CC[C@@]1(C(=O)O)CCCN1; tBuAla = CC(C)(C)C[C@H](N)C(=O)O; 3Thi = N[C@@H](Cc1ccsc1)C(=O)O; Cha = N[C@@H](CC1CCCCC1)C(=O)O; S8 = C=CCCCCCC[C@](C)(N)C(=O)O; hSer = N[C@@H](CCO)C(=O)O

For the first experiment, the target named is full-length beta-Catenin (Uniprot ID P35222) (Homo sapiens (Human)) (UniProt P35222). As to the kind of experiment: fluorescence polarization competition; full-length beta-catenin + 5FAM-TCF4(10-53) probe; peptide titrated. On the technique in general: Polarisation of emitted light reports the rotation of a fluorescent probe.
Target sequence in this assay (P35222 2-781 limits assumed): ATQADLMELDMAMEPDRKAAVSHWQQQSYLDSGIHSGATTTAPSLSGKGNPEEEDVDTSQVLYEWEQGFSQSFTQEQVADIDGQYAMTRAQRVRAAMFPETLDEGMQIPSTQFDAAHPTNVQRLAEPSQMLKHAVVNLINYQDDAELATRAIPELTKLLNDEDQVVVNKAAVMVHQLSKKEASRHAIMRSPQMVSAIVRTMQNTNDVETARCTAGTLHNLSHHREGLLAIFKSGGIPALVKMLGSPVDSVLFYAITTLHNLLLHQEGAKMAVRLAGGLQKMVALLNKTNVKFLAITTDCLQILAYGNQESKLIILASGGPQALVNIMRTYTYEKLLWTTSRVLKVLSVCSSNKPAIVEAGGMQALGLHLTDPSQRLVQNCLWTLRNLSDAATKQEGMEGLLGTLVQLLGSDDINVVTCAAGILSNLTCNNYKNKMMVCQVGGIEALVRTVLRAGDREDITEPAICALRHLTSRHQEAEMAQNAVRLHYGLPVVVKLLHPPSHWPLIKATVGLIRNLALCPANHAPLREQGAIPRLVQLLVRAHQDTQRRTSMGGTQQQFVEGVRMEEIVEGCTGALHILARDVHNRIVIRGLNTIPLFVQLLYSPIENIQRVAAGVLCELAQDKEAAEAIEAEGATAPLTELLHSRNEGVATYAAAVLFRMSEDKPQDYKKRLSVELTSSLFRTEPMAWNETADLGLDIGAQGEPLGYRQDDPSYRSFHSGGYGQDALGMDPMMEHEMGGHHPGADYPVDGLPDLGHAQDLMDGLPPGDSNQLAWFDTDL
In the case of B1, the 50% effective concentration (EC50) was determined as 54 nM. Same read-out and setting: under B2 stands 58 nM.

Another experiment shares this target. As to the kind of experiment: fluorescence polarization competition; peptide titrated against full-length beta-catenin + 5FAM-TCF4(10-53).
Target sequence in this assay (P35222 whole entry): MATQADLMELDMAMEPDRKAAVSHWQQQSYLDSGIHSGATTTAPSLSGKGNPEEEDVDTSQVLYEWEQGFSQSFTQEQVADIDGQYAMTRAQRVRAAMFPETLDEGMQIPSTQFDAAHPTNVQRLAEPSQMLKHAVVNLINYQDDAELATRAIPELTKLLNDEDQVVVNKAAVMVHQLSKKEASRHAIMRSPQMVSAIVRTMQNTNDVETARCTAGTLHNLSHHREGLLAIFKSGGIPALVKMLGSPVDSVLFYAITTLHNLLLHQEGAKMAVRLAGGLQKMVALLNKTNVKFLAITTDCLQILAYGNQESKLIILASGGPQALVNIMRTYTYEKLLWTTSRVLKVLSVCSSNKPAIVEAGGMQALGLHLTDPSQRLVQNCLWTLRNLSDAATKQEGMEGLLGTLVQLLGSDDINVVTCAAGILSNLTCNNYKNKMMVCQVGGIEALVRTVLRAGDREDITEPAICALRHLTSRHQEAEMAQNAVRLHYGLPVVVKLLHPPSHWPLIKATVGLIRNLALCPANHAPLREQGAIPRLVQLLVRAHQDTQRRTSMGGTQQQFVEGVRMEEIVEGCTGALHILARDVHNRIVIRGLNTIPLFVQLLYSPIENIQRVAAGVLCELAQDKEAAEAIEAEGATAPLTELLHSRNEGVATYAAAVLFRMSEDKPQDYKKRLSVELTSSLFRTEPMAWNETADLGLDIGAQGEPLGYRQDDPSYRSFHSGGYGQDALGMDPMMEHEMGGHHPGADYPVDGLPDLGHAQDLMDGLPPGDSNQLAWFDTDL
Regarding B1, the IC50 was found to be 54 nM.

B2: the concentration for half-maximal inhibition (IC50) came out at 58 nM.

The target is the same in the next experiment. Nature of the experiment: fluorescence polarization competition; 10 nM full-length beta-catenin, 10 nM 5FAM-TCF4(10-53) as competitor probe.
Target sequence in this assay (P35222 2-781 limits assumed): as the sequence (P35222 2-781 limits assumed) above
Consider B3, for which the IC50 turned out to be 357 nM. B4: the half-maximal inhibitory concentration (IC50) was found to be 144 nM.

B5 yielded an IC50 of 180 nM. Same read-out and setting: with B6 the figure was 41 nM.

For the molecule B7, the concentration for half-maximal inhibition (IC50) was 10 nM.

As for B8, the concentration for half-maximal inhibition (IC50) was determined as 56 nM. On the same count and under the same terms, under B9 stands 38 nM; under B10, 12 nM. As for B11, the concentration for half-maximal inhibition (IC50) is 16 nM. On the same count and under the same terms, under B12 stands 5 nM; under B13, 56 nM. On the same count and under the same terms, under B14 stands 17 nM. The same measure, in the same setting: under B15 stands 16 nM.

As a reminder, the EC50 is the concentration needed to bring the measured effect to its halfway point. As usually defined, the IC50 is the concentration needed to halve the response being measured.
